From publication PMC11098083 (Proceedings of the National Academy of Sciences of the …, 2024)
Where two headings read alike, the source gives them in different places.

B1: recombinant glutathione S-transferase (GST)-Pol32 (natural protein, yeast (S. cerevisiae), UniProt P47110 1-350, looked up)
chain: MDQKASYFINEKLFTEVKPVLFTDLIHHLKIGPSMAKKLMFDYYKQTTNAKYNCVVICCYKDQTIKIIHDLSNIPQQDSIIDCFIYAFNPMDSFIPYYDIIDQKDCLTIKNSYELKVSESSKIIERTKTLEEKSKPLVRPTARSKTTPEETTGRKSKSKDMGLRSTALLAKMKKDRDDKETSRQNELRKRKEENLQKINKQNPEREAQMKELNNLFVEDDLDTEEVNGGSKPNSPKETDSNDKDKNNDDLEDLLETTAEDSLMDVPKIQQTKPSETEHSKEPKSEEEPSSFIDEDGYIVTKRPATSTPPRKPSPVVKRALSSSKKQETPSSNKRLKKQGTLESFFKRKAK
B2: recombinant Mcm2 (GST tag removed) (natural protein)
chain: MSDNRRRRREEDDSDSENELPPSSPQQHFRGGMNPVSSPIGSPDMINPEGDDNEVDDVPDIDEVEEQMNEVDLMDDNMYEDYAADHNRDRYDPDQVDDREQQELSLSERRRIDAQLNERDRLLRNVAYIDDEDEEQEGAAQLDEMGLPVQRRRRRRQYEDLENSDDDLLSDMDIDPLREELTLESLSNVKANSYSEWITQPNVSRTIARELKSFLLEYTDETGRSVYGARIRTLGEMNSESLEVNYRHLAESKAILALFLAKCPEEMLKIFDLVAMEATELHYPDYARIHSEIHVRISDFPTIYSLRELRESNLSSLVRVTGVVTRRTGVFPQLKYVKFNCLKCGSILGPFFQDSNEEIRISFCTNCKSKGPFRVNGEKTVYRNYQRVTLQEAPGTVPPGRLPRHREVILLADLVDVSKPGEEVEVTGIYKNNYDGNLNAKNGFPVFATIIEANSIKRREGNTANEGEEGLDVFSWTEEEEREFRKISRDRGIIDKIISSMAPSIYGHRDIKTAVACSLFGGVPKNVNGKHSIRGDINVLLLGDPGTAKSQILKYVEKTAHRAVFATGQGASAVGLTASVRKDPITKEWTLEGGALVLADKGVCLIDEFDKMNDQDRTSIHEAMEQQSISISKAGIVTTLQARCSIIAAANPNGGRYNSTLPLAQNVSLTEPILSRFDILCVVRDLVDEEADERLATFVVDSHVRSHPENDEDREGEELKNNGESAIEQGEDEINEQLNARQRRLQRQRKKEEEISPIPQELLMKYIHYARTKIYPKLHQMDMDKVSRVYADLRRESISTGSFPITVRHLESILRIAESFAKMRLSEFVSSYDLDRAIKVVVDSFVDAQKVSVRRQLRRSFAIYTLGH

How the values were obtained:
Assay in all cases: pull-down
[1] = target: T1, recombinant human histone H3.1–H4 tetramer (human, UniProt P68431 1-136; P62805 1-103)
[2] = target: B2
[3] = target: T2, HIS-tagged N-terminal of yeast Pol1 (1 to 527 AA) (yeast (S. cerevisiae), UniProt P13382 1-527)
T2 sequence (looked up): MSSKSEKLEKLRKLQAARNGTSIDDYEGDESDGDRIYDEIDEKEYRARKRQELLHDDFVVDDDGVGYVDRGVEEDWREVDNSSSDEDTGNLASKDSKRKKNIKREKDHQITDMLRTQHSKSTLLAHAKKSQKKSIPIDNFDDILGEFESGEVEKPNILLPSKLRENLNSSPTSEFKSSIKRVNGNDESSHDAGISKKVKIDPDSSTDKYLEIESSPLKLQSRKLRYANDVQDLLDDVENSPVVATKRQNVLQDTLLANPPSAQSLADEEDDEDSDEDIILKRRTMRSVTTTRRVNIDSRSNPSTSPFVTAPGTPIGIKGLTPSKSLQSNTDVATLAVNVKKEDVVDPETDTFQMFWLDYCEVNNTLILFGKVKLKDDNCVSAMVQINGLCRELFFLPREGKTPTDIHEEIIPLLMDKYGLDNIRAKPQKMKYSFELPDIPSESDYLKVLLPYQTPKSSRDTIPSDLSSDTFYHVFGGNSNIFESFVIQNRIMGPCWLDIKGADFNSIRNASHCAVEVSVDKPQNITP

[4] = target: T1, recombinant human histone H3.1–H4 …; remark: listed apart in the source

B1: binds [1]; binds [2]; binds [3].

B2: binds [4].
